# In article PMC8794075 (Emerging Microbes & Infections, 2022):
# B1: MAb S3H3 (antibody, V domains shown)
# VH: QVQLQQPGAELVRPGASVKLSCKASGYSFTRFWMNWVKQRPGQGLEWIGMIHPSDSETRLNQKFKDKATLTVDKSSTTAYMQLSSPTSEDSAVYYCARKDYDYDAWFAYWGQGTLVTVSA
# VL: DIVLTQSPASLAVSLGQRATISCRASKSVSASVYSYMHWYQQKPGQPPKLLIYLASSLESGVPARFSGSGSGTDFTLNIHPVEEEDAATYYCHHSRELPPAFGGGTKLEIK
# Target: prefusion-stabilized SARS-CoV-2 S-trimer protein (wild type, Wuhan-Hu-1) (SARS-CoV-2, UniProt P0DTC2)
# Assay: cell-based or functional assay
binder,measurement,value
B1,IC50 of neutralisation of WT S pseudovirus,0.083 µg/mL
